Assay [1] concerns the target T1, S-receptor-binding domain (RBD)-Fc of SARS-CoV-2 (SARS-CoV-2, UniProt P0DTC2).
T1 construct: also called S-RBD-Fc of SARS-CoV-2; S-RBD-Fc
Description: SPR. Conditions: both partners purified.

In assay [2] the target is angiotensin-converting enzyme 2 (UniProt Q9BYF1 18-805). The assay can be described thus: SPR; Biacore; who was immobilised and the conditions are not given. Particulars: both partners purified. On the technique in general: Surface plasmon resonance follows binding to a sensor surface in real time, without labels.
angiotensin-converting enzyme 2, sequence (Q9BYF1 18-805): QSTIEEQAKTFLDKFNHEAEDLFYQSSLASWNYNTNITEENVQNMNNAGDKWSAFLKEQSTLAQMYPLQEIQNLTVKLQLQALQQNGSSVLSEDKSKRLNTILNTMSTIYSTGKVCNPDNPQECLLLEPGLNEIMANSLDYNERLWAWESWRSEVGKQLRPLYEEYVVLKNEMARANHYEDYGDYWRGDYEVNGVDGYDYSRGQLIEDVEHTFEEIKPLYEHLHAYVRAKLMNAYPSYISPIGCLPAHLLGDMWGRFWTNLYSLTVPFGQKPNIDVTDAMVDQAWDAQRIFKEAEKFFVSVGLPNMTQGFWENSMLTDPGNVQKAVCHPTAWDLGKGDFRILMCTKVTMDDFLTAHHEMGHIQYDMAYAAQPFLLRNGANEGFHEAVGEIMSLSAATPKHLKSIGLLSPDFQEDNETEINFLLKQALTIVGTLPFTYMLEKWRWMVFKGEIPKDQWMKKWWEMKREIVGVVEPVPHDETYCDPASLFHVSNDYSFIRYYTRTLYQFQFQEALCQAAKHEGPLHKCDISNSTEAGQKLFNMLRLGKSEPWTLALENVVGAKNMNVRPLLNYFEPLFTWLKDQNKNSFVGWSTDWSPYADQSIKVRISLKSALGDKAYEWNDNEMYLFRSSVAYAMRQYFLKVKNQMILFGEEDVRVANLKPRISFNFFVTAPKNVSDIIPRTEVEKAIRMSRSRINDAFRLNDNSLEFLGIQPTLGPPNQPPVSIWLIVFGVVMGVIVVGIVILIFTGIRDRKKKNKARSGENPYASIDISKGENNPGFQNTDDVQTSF

Results on one molecule are retold here after PMC8012516, “Antimicrobial peptide DP7 with potential activity against SARS coronavirus infections” (Signal Transduction and Targeted Therapy, 2021).

B1: antibacterial peptide DP7 (peptide)
peptide: VQWRIRVAVIRK
notes: also called antimicrobial peptide DP7
B1: the dissociation constant (Kd) in assay [1] is 51.9 nM; in assay [2], 227 nM.

As usually defined, the Kd is the free concentration of one partner at which half of the binding sites on the other are occupied at equilibrium, for simple one-to-one binding.
